Our source for the Kd values is publication doi:10.1101/2021.04.24.441256.

In general, Kd refers to the free concentration of one partner at which half of the binding sites on the other are occupied at equilibrium, for simple one-to-one binding. Read a high Kd as a looser complex.

In the test the target is the engineered RGA5_HMAs. Put plainly: SPR.

As to “6xHis-tagged AVR-PikD (from UniProt C4B8B8 22-113) (natural protein)”, the Kd lay in the range of 0.5 to 1.6 nM.
